Laboratory results: PMC11243334, “Synthesis and Evaluation of the First ^68Ga-Labeled C-Terminal Hydroxamate-Derived Gastrin-Releasing Peptide Receptor-Targeted Tracers for Cancer Imaging with Positron Emission Tomography” (Molecules, 2024)
Read-outs that look alike come from different tables or passages of the source.

What was measured:
physchem = conditions: n-octanol/DPBS, pH 7.4
Protocol: LogD7.4 values of [^68Ga]Ga-LW02075, [^68Ga]Ga-LW02050, and [^68Ga]Ga-SB3 were measured via the shake flask method. An aliquot of the ^68Ga-labeled tracer (~1.85 MBq) was added to a 15 mL falcon tube containing 3 mL of n-octanol and 3 mL of DPBS (pH 7.4) followed by 1 min of vortex (n = 3). After that, the mixture was centrifuged at 5000 rpm for 10 min, and samples of the n-octanol (1 mL) and buffer (1 mL) layers were collected and counted on a Perkin Elmer (Waltham, MA, USA) Wizard2 2480 automatic gamma counter. The LogD7.4 values of [^68Ga]Ga-LW02075, [^68Ga]Ga-LW02050, and [^68Ga]Ga-SB3 were calculated following the equation: LogD7.4 = log10[(counts in the n-octanol phase)/(counts in the buffer phase)].

PC-3 tumor xenografts = assay: PET/CT imaging in mice bearing PC-3 tumor xenografts; type: in vivo; conditions: 1 h post injection, mice
Protocol: (§1) Imaging and biodistribution studies were performed on male NOD.Cg-Rag1^tm1Mom Il2rg^tm1Wjl/SzJ (NRG) mice following previously published procedures. The experiments were conducted following the guidelines established by the Canadian Council on Animal Care and approved by Animal Ethics Committee of the University of British Columbia. The mice were sedated (2.5% isoflurane in oxygen) and injected with 5 × 10^6 PC-3 cells (100 µL; 1:1 PBS/Matrigel) subcutaneously behind the left shoulder. The tumor-bearing mice were used for PET/CT imaging and biodistribution studies when the tumor grew to 5–8 mm in diameter.
PET/CT imaging experiments were performed on a Siemens (Knoxville, TN, USA) Inveon micro PET/CT scanner. Each tumor-bearing mouse was injected with ~3–6 MBq of ^68Ga-labeled tracer through a lateral caudal tail vein under anaesthesia. At around 50 min post injection, a 10 min CT scan was obtained first for localization and attenuation correction after segmentation for reconstructing the PET image, followed by a 10 min static PET scan.

[1] = Ex vivo biodistribution in PC-3 tumor-bearing mice; conditions: male, mouse, iv, total radioactivity, mean ± SD, n = 4; for tissue uptake at 1 h: NOD.Cg-Rag1^tm1Mom Il2rg^tm1Wjl/SzJ (NRG); for tissue to tissue ratio at 1 h: NOD.Cg-Rag1tm1Mom Il2rgtm1Wjl/SzJ (NRG)
Protocol: Biodistribution studies were conducted for ^68Ga-labeled SB3, LW02075 and LW02050 in PC-3 tumor-bearing mice (n = 4).
as §1
For biodistribution studies, the mice were injected with the radiotracer (~2–4 MBq), as described above. Blocking of [^68Ga]Ga-LW02075 and [^68Ga]Ga-LW02050 was conducted by co-injection with 100 μg nonradioactive Ga-LW02075 and Ga-LW02050, respectively, through a lateral caudal tail vein under anaesthesia. At 1 h post injection, the mice were sedated and euthanized by CO2 inhalation. Blood was collected via cardiac puncture, and organs/tissues of interest were collected, weighed, and counted on a Perkin Elmer (Waltham, MA, USA) Wizard2 2480 automatic gamma counter.

Structure (SMILES): CC(C)C[C@H](NC(=O)[C@H](Cc1c[nH]cn1)NC(=O)CNC(=O)[C@@H](NC(=O)[C@H](C)NC(=O)[C@H](Cc1c[nH]c2ccccc12)NC(=O)[C@H](CCC(N)=O)NC(=O)[C@@H](Cc1ccccc1)NC(=O)COCC(=O)Nc1ccc(CNC(=O)CN2CCN(CC(=O)O)CCN(CC(=O)O)CCN(CC(=O)O)CC2)cc1)C(C)C)C(=O)NO [[^68Ga]Ga-LW02075, [^68Ga]Ga-DOTA-pABzA-DIG-D-Phe-Gln-Trp-Ala-Val-Gly-His-Leu-NHOH, metal not drawn]
- logD (physchem): -2.09 ± 0.05
- Excretion pathway in PET images (PC-3 tumor xenografts): excreted primarily through the renal pathway
- Pancreas in PET images (PC-3 tumor xenografts): high pancreas uptake
- tissue uptake at 1 h ([1]; PC-3 tumor, 1 h blocked: co-injected with 100 µg nonradioactive Ga-complexed standard, read-out: PC-3 tumor uptake, blocked): 1.83 ± 0.22 %ID/g
- tissue uptake at 1 h ([1]; PC-3 tumor, 1 h post injection, read-out: PC-3 tumor uptake): 3.97 ± 1.71 %ID/g
- tissue uptake at 1 h ([1]; adrenal glands, 1 h blocked: co-injected with 100 µg nonradioactive Ga-complexed standard, read-out: Adrenal glands uptake, blocked): 1.02 ± 0.59 %ID/g
- tissue uptake at 1 h ([1]; adrenal glands, 1 h post injection, read-out: Adrenal glands uptake): 4.42 ± 2.41 %ID/g
- tissue uptake at 1 h ([1]; blood, 1 h blocked: co-injected with 100 µg nonradioactive Ga-complexed standard, read-out: Blood uptake, blocked): 1.15 ± 0.26 %ID/g
- tissue uptake at 1 h ([1]; blood, 1 h post injection, read-out: Blood uptake): 0.76 ± 0.41 %ID/g
- tissue uptake at 1 h ([1]; bone, 1 h blocked: co-injected with 100 µg nonradioactive Ga-complexed standard, read-out: Bone uptake, blocked): 0.21 ± 0.07 %ID/g
- tissue uptake at 1 h ([1]; bone, 1 h post injection, read-out: Bone uptake): 0.2 ± 0.2 %ID/g
- tissue uptake at 1 h ([1]; brain, 1 h blocked: co-injected with 100 µg nonradioactive Ga-complexed standard, read-out: Brain uptake, blocked): 0.03 ± 0.01 %ID/g
- tissue uptake at 1 h ([1]; brain, 1 h post injection, read-out: Brain uptake): 0.03 ± 0.01 %ID/g
- tissue uptake at 1 h ([1]; fat, 1 h blocked: co-injected with 100 µg nonradioactive Ga-complexed standard, read-out: Fat uptake, blocked): 0.12 ± 0.02 %ID/g
- tissue uptake at 1 h ([1]; fat, 1 h post injection, read-out: Fat uptake): 0.08 ± 0.05 %ID/g
- tissue uptake at 1 h ([1]; heart, 1 h blocked: co-injected with 100 µg nonradioactive Ga-complexed standard, read-out: Heart uptake, blocked): 0.34 ± 0.04 %ID/g
- tissue uptake at 1 h ([1]; heart, 1 h post injection, read-out: Heart uptake): 0.24 ± 0.13 %ID/g
- tissue uptake at 1 h ([1]; kidneys, 1 h blocked: co-injected with 100 µg nonradioactive Ga-complexed standard, read-out: Kidneys uptake, blocked): 4.98 ± 1.59 %ID/g
- tissue uptake at 1 h ([1]; kidneys, 1 h post injection, read-out: Kidneys uptake): 3.11 ± 1.18 %ID/g
- tissue uptake at 1 h ([1]; large intestine, 1 h blocked: co-injected with 100 µg nonradioactive Ga-complexed standard, read-out: Large intestine uptake, blocked): 0.4 ± 0.17 %ID/g
- tissue uptake at 1 h ([1]; large intestine, 1 h post injection, read-out: Large intestine uptake): 1.71 ± 0.47 %ID/g
- tissue uptake at 1 h ([1]; liver, 1 h blocked: co-injected with 100 µg nonradioactive Ga-complexed standard, read-out: Liver uptake, blocked): 5.92 ± 1.69 %ID/g
- tissue uptake at 1 h ([1]; liver, 1 h post injection, read-out: Liver uptake): 4.14 ± 1.5 %ID/g
- tissue uptake at 1 h ([1]; lungs, 1 h blocked: co-injected with 100 µg nonradioactive Ga-complexed standard, read-out: Lungs uptake, blocked): 0.94 ± 0.17 %ID/g
- tissue uptake at 1 h ([1]; lungs, 1 h post injection, read-out: Lungs uptake): 0.75 ± 0.41 %ID/g
- tissue uptake at 1 h ([1]; muscle, 1 h blocked: co-injected with 100 µg nonradioactive Ga-complexed standard, read-out: Muscle uptake, blocked): 0.27 ± 0.14 %ID/g
- tissue uptake at 1 h ([1]; muscle, 1 h post injection, read-out: Muscle uptake): 0.21 ± 0.18 %ID/g
- tissue uptake at 1 h ([1]; pancreas, 1 h blocked: co-injected with 100 µg nonradioactive Ga-complexed standard, read-out: Pancreas uptake, blocked): 1.55 ± 0.83 %ID/g
- tissue uptake at 1 h ([1]; pancreas, 1 h post injection, read-out: Pancreas uptake): 17.8 ± 5.24 %ID/g
- tissue uptake at 1 h ([1]; small intestine, 1 h blocked: co-injected with 100 µg nonradioactive Ga-complexed standard, read-out: Small intestine uptake, blocked): 5.62 ± 1.86 %ID/g
- tissue uptake at 1 h ([1]; small intestine, 1 h post injection, read-out: Small intestine uptake): 6.72 ± 1.94 %ID/g
- tissue uptake at 1 h ([1]; spleen, 1 h blocked: co-injected with 100 µg nonradioactive Ga-complexed standard, read-out: Spleen uptake, blocked): 0.35 ± 0.12 %ID/g
- tissue uptake at 1 h ([1]; spleen, 1 h post injection, read-out: Spleen uptake): 0.26 ± 0.13 %ID/g
- tissue uptake at 1 h ([1]; stomach, 1 h blocked: co-injected with 100 µg nonradioactive Ga-complexed standard, read-out: Stomach uptake, blocked): 0.73 ± 0.29 %ID/g
- tissue uptake at 1 h ([1]; stomach, 1 h post injection, read-out: Stomach uptake): 1.23 ± 0.22 %ID/g
- tissue uptake at 1 h ([1]; testes, 1 h blocked: co-injected with 100 µg nonradioactive Ga-complexed standard, read-out: Testes uptake, blocked): 0.3 ± 0.06 %ID/g
- tissue uptake at 1 h ([1]; testes, 1 h post injection, read-out: Testes uptake): 0.17 ± 0.1 %ID/g
- tissue to tissue ratio at 1 h ([1]; tumor and bone, 1 h blocked: co-injected with 100 µg nonradioactive Ga-complexed standard, read-out: Tumor/bone uptake ratio, blocked): 9.3 ± 2.39
- tissue to tissue ratio at 1 h ([1]; tumor and bone, 1 h post injection, read-out: Tumor/bone uptake ratio): 30.6 ± 18.9
- tissue to tissue ratio at 1 h ([1]; tumor and kidney, 1 h blocked: co-injected with 100 µg nonradioactive Ga-complexed standard, read-out: Tumor/kidney uptake ratio, blocked): 0.39 ± 0.09
- tissue to tissue ratio at 1 h ([1]; tumor and kidney, 1 h post injection, read-out: Tumor/kidney uptake ratio): 1.28 ± 0.33
- tissue to tissue ratio at 1 h ([1]; tumor and muscle, 1 h blocked: co-injected with 100 µg nonradioactive Ga-complexed standard, read-out: Tumor/muscle uptake ratio, blocked): 7.85 ± 3.13
- tissue to tissue ratio at 1 h ([1]; tumor and muscle, 1 h post injection, read-out: Tumor/muscle uptake ratio): 24.8 ± 9.99
- tissue to tissue ratio at 1 h ([1]; tumor and pancreas, 1 h blocked: co-injected with 100 µg nonradioactive Ga-complexed standard, read-out: Tumor/pancreas uptake ratio, blocked): 1.46 ± 0.76
- tissue to tissue ratio at 1 h ([1]; tumor and pancreas, 1 h post injection, read-out: Tumor/pancreas uptake ratio): 0.22 ± 0.05
- tissue to tissue ratio at 1 h ([1]; tumor and whole blood, 1 h blocked: co-injected with 100 µg nonradioactive Ga-complexed standard, read-out: Tumor/blood uptake ratio, blocked): 1.65 ± 0.4
- tissue to tissue ratio at 1 h ([1]; tumor and whole blood, 1 h post injection, read-out: Tumor/blood uptake ratio): 5.51 ± 1.49
